Laboratory results taken from paper PMC6364316 (Vaccine, 2018).

Key:
gp120 [1] = target: T1, gp120 (HIV-1, strain  for this …, UniProt Q75760); test: SPR
gp120 [2] = target: T1, gp120; test: ELISA

B1: IgG b12 (antibody, V domains shown)
VH: QVQLVQSGAEVKKPGASVKVSCQASGYRFSNFVIHWVRQAPGQRFEWMGWINPYNGNKEFSAKFQDRVTFTADTSANTAYMELRSLRSADTAVYYCARVGPYSWDDSPQDNYYMDVWGKGTTVIVSS
VL: EIVLTQSPGTLSLSPGERATFSCRSSHSIRSRRVAWYQHKPGQAPRLVIHGVSNRASGISDRFSGSGSGTDFTLTITRVEPEDFALYYCQVYGASSYTFGQGTKLERK
For B1, the Kd (gp120 [1]) was 36 ± 2 nM, the koff (gp120 [1]) was 0.0052 s⁻¹ and the “10 times EC50” value (gp120 [2]) was 1 µg/mL.
